Assay results taken from publication PMC12477886.

Tests used:
Test in all cases: BLI
[1] = biological target: M15 single reverted mutant G51A (light chain A51 reverted to germline G) (human)
[2] = biological target: M15 single reverted mutant S32I (light chain I32 reverted to germline S) (human)
[3] = biological target: M15 single reverted mutant T57I (light chain I57 reverted to germline T) (human)
[4] = biological target: M15 triple mutant (light chain S32I, G51A and T57I all reverted to germline) (human)

SARS-CoV-2 WA1/2020 S2 protein (stabilized prefusion spike S2 trimer) (from UniProt P0DTC2) (domain or fragment)
fold decrease in binding affinity compared with M15 [1]: 1.88 fold | fold decrease in binding affinity compared with M15 [2]: 1.45 fold | fold decrease in binding affinity compared with M15 [3]: 1.02 fold | fold decrease in binding affinity compared with M15 [4]: 12 fold
